Measurements taken from paper PMC3024583.
Where a chain is given by its changes, count along the chain named. Where two headings read alike, the source gives them in different places.

Experiments:
Assay in all cases: EMSA
[1] = target: T1, CSL (CBF1);Notch1 RAMANK wild-type;MAML1 (human?;human;human?, UniProt Q06330;P46531;Q92585 23-449;1760-2126;13-74, ||)
[2] = target: T1, CSL (CBF1);Notch1 RAMANK wild-type;MAML1; remark: listed apart in the source
[3] = target: T1, CSL (CBF1);Notch1 RAMANK wild-type;MAML1; remark: listed apart in the source
[4] = target: T1, CSL (CBF1);Notch1 RAMANK wild-type;MAML1; remark: listed apart in the source
[5] = target: T1, CSL (CBF1);Notch1 RAMANK wild-type;MAML1; remark: listed apart in the source
[6] = target: CSL (CBF1);Notch1 RAMANK R1985A;MAML1 (human?;human;human?, UniProt Q06330;P46531;Q92585 23-449;1760-2126;13-74, |R1984A|)
[7] = target: T1, CSL (CBF1);Notch1 RAMANK wild-type;MAML1; remark: listed apart in the source

T1 sequence (Q06330 23-449, chain 1 of 3): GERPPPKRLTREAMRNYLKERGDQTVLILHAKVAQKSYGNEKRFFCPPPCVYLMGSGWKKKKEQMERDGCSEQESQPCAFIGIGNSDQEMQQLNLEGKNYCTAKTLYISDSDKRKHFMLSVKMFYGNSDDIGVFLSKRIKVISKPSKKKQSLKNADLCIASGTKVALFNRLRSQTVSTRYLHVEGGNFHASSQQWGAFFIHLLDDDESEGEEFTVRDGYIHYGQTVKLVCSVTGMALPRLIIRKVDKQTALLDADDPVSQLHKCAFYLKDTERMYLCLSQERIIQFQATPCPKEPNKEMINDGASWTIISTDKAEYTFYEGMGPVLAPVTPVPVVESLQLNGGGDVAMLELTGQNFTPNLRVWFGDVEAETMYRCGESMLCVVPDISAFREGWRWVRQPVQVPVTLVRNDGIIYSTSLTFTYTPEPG
T1 sequence (P46531 1760-2126, chain 2 of 3): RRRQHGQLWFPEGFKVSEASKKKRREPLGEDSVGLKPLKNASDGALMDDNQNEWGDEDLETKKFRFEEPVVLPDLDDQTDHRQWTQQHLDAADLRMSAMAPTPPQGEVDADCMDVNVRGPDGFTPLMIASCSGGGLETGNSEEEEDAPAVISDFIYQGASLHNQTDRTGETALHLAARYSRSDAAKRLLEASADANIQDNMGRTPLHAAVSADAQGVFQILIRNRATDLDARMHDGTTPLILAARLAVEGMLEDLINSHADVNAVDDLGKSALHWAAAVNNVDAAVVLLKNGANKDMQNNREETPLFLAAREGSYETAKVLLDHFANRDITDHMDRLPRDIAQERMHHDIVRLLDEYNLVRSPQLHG
T1 sequence (Q92585 13-74, chain 3 of 3): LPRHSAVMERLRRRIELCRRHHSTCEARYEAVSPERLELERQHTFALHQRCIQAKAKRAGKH
CSL (CBF1);Notch1 RAMANK R1985A;MAML1, sequence (Q06330 23-449, chain 1 of 3): as the sequence (Q06330 23-449, chain 1 of 3) above
CSL (CBF1);Notch1 RAMANK R1985A;MAML1, sequence (P46531 1760-2126 R1984A, chain 2 of 3): as the sequence (P46531 1760-2126, chain 2 of 3) above, with R225A counted along it
CSL (CBF1);Notch1 RAMANK R1985A;MAML1, sequence (Q92585 13-74, chain 3 of 3): as the sequence (Q92585 13-74, chain 3 of 3) above

B1: HES4 SPS (dsDNA)
DNA 1: GGCGAGTGTGGGAAAGAATGCGGAGCCGGGTTCACACACCCCGCGG
DNA 2: CCGCGGGGTGTGTGAACCCGGCTCCGCATTCTTTCCCACACTCGCC
B1: binds [1].

B2: FJX1 SPS (dsDNA)
DNA 1: GGACCTGTGAATCGCGCCCACCGGAGGGTCTCACAAGC
DNA 2: GCTTGTGAGACCCTCCGGTGGGCGCGATTCACAGGTCC
B2: binds [1].

B3: HES5_E_long human (dsDNA)
DNA 1: GCGGAGTGTGGGAACGGCCGCGGCGCCCGGACTCCAGGCGCCAGGCCGC
DNA 2: GCGGCCTGGCGCCTGGAGTCCGGGCGCCGCGGCCGTTCCCACACTCCGC
B3: binds [2].

B4: Hes5_E_long mouse (dsDNA)
DNA 1: B3 DNA 1 with G3C, T33C, A43G
DNA 2: B3 DNA 2 with T7C, A17G, C47G
B4: binds [2].

B5: 15bp SPS (SYT14) (dsDNA)
DNA 1: GCCAAACATGGGAAATTGCTGCTATTCTTTTCCCACTACAGCC
DNA 2: GGCTGTAGTGGGAAAAGAATAGCAGCAATTTCCCATGTTTGGC
B5: binds [3].

B6: HES1 SPS (dsDNA)
DNA 1: AGTTACTGTGGGAAAGAAAGTTTGGGAAGTTTCACACGAGCCGTTC
DNA 2: GAACGGCTCGTGTGAAACTTCCCAAACTTTCTTTCCCACAGTAACT
B6: binds [4].

B7: Single-site control (dsDNA)
DNA 1: GGAAACACGCCGTGGGAAAAAATTTGGC
DNA 2: GCCAAATTTTTTCCCACGGCGTGTTTCC
B7: binds [5]; binds [6].

B8: 17bp SPS (CUL1) (dsDNA)
DNA 1: GAATTACGTGGGAATTATAAATAAATTACTCTTCACACTCTTATCC
DNA 2: GGATAAGAGTGTGAAGAGTAATTTATTTATAATTCCCACGTAATTC
B8: binds [7].
